# Results as given in patent publication WO2011147762A2.
# Columns and labels:
# [1] = molecular target: ED-B fibronectin antigen protein (recombinant), bound to CNBr activated sepharose 4B (UniProt P02751); experiment: ED-B sepharose column, % of total radioactivity bound; Study A; trolox 5 mg/mL; day 0
# [2] = molecular target: ED-B fibronectin antigen protein (recombinant), bound to CNBr activated sepharose 4B (UniProt P02751); experiment: ED-B sepharose column, % of total radioactivity bound; Study A; trolox 5 mg/mL; day 5
# [3] = molecular target: ED-B fibronectin antigen protein (recombinant), bound to CNBr activated sepharose 4B (UniProt P02751); experiment: ED-B sepharose column, % of total radioactivity bound; Study A; maltose 25 mg/mL; day 5
# [4] = molecular target: ED-B fibronectin antigen protein (recombinant), bound to CNBr activated sepharose 4B (UniProt P02751); experiment: ED-B sepharose column, % of total radioactivity bound; Study A; maltose 50 mg/mL; day 1
# [5] = molecular target: ED-B fibronectin antigen protein (recombinant), bound to CNBr activated sepharose 4B (UniProt P02751); experiment: ED-B sepharose column, % of total radioactivity bound; Study A; maltose 50 mg/mL; day 3
# [6] = molecular target: ED-B fibronectin antigen protein (recombinant), bound to CNBr activated sepharose 4B (UniProt P02751); experiment: ED-B sepharose column, % of total radioactivity bound; Study A; inositol 25 mg/mL; day 7
# [7] = molecular target: ED-B fibronectin antigen protein (recombinant), bound to CNBr activated sepharose 4B (UniProt P02751); experiment: ED-B sepharose column, % of total radioactivity bound; Study A; inositol 50 mg/mL; day 5
# [8] = molecular target: ED-B fibronectin antigen protein (recombinant), bound to CNBr activated sepharose 4B (UniProt P02751); experiment: ED-B sepharose column, % of total radioactivity bound; Study A; inositol 50 mg/mL; day 7
# [9] = molecular target: ED-B fibronectin antigen protein (recombinant), bound to CNBr activated sepharose 4B (UniProt P02751); experiment: ED-B sepharose column, % of total radioactivity bound; Study B3; inositol 10 mg/mL; day 1
# [10] = molecular target: ED-B fibronectin antigen protein (recombinant), bound to CNBr activated sepharose 4B (UniProt P02751); experiment: ED-B sepharose column, % of total radioactivity bound; Study A; methionine 10 mg/mL; day 1
# [11] = molecular target: ED-B fibronectin antigen protein (recombinant), bound to CNBr activated sepharose 4B (UniProt P02751); experiment: ED-B sepharose column, % of total radioactivity bound; Study A; methionine 25 mg/mL; day 0
# [12] = molecular target: ED-B fibronectin antigen protein (recombinant), bound to CNBr activated sepharose 4B (UniProt P02751); experiment: ED-B sepharose column, % of total radioactivity bound; Study A; methionine 25 mg/mL; day 3
# [13] = molecular target: ED-B fibronectin antigen protein (recombinant), bound to CNBr activated sepharose 4B (UniProt P02751); experiment: ED-B sepharose column, % of total radioactivity bound; Study B3; thioglycerol 10 mg/mL; day 3
# [14] = molecular target: ED-B fibronectin antigen protein (recombinant), bound to CNBr activated sepharose 4B (UniProt P02751); experiment: ED-B sepharose column, % of total radioactivity bound; Study B3; thioglycerol 10 mg/mL; day 7
# [15] = molecular target: ED-B fibronectin antigen protein (recombinant), bound to CNBr activated sepharose 4B (UniProt P02751); experiment: ED-B sepharose column, % of total radioactivity bound; Study B3; ascorbic acid 25 mg/mL; day 0
# [16] = molecular target: ED-B fibronectin antigen protein (recombinant), bound to CNBr activated sepharose 4B (UniProt P02751); experiment: ED-B sepharose column, % of total radioactivity bound; Study B3; ascorbic acid 25 mg/mL; day 7
# [17] = molecular target: ED-B fibronectin antigen protein (recombinant), bound to CNBr activated sepharose 4B (UniProt P02751); experiment: ED-B sepharose column, % of total radioactivity bound; Study A; sodium thiosulfate 5 mg/mL; day 0
# [18] = molecular target: ED-B fibronectin antigen protein (recombinant), bound to CNBr activated sepharose 4B (UniProt P02751); experiment: ED-B sepharose column, % of total radioactivity bound; Study A; sodium thiosulfate 5 mg/mL; day 1
# [19] = molecular target: ED-B fibronectin antigen protein (recombinant), bound to CNBr activated sepharose 4B (UniProt P02751); experiment: ED-B sepharose column, % of total radioactivity bound; Study A; sodium thiosulfate 5 mg/mL; day 5
# [20] = molecular target: ED-B fibronectin antigen protein (recombinant), bound to CNBr activated sepharose 4B (UniProt P02751); experiment: ED-B sepharose column, % of total radioactivity bound; Study A; sodium thiosulfate 10 mg/mL; day 1
# [21] = molecular target: ED-B fibronectin antigen protein (recombinant), bound to CNBr activated sepharose 4B (UniProt P02751); experiment: ED-B sepharose column, % of total radioactivity bound; Study A; sodium thiosulfate 10 mg/mL; day 3
# [22] = molecular target: ED-B fibronectin antigen protein (recombinant), bound to CNBr activated sepharose 4B (UniProt P02751); experiment: ED-B sepharose column, % of total radioactivity bound; Study A; sodium thiosulfate 25 mg/mL; day 5
# [23] = molecular target: ED-B fibronectin antigen protein (recombinant), bound to CNBr activated sepharose 4B (UniProt P02751); experiment: ED-B sepharose column, % of total radioactivity bound; Study B3; no-excipient control (PBS); day 5
# [24] = molecular target: ED-B fibronectin antigen protein (recombinant), bound to CNBr activated sepharose 4B (UniProt P02751); experiment: ED-B sepharose column, % of total radioactivity bound; Study A; no-excipient control (saline); day 0
# [25] = molecular target: ED-B fibronectin antigen protein (recombinant), bound to CNBr activated sepharose 4B (UniProt P02751); experiment: ED-B sepharose column, % of total radioactivity bound; Study A; no-excipient control (saline); day 1
# [26] = molecular target: ED-B fibronectin antigen protein (recombinant), bound to CNBr activated sepharose 4B (UniProt P02751); experiment: ED-B sepharose column, % of total radioactivity bound; Study A; no-excipient control (saline); day 5
# [27] = molecular target: ED-B fibronectin antigen protein (recombinant), bound to CNBr activated sepharose 4B (UniProt P02751); experiment: ED-B sepharose column, % of total radioactivity bound; Study B3; human serum albumin 10 mg/mL; day 0
# [28] = molecular target: ED-B fibronectin antigen protein (recombinant), bound to CNBr activated sepharose 4B (UniProt P02751); experiment: ED-B sepharose column, % of total radioactivity bound; Study B3; human serum albumin 10 mg/mL; day 5
# Chain of 131I L19-SIP (radioiodinated L19 SIP homodimer) (chain): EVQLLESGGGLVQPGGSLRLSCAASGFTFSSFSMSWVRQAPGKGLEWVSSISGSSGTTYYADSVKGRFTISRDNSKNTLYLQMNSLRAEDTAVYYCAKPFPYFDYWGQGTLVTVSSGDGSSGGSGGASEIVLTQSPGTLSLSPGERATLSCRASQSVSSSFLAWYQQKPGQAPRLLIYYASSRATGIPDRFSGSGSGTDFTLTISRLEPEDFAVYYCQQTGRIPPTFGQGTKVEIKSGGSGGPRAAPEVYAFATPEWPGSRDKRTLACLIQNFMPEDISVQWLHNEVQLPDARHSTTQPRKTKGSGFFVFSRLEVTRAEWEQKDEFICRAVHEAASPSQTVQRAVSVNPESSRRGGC
# Chain of 131I L19-SIP (radioiodinated L19 SIP homodimer) (chain): as above
# Chain of UniProt P02751 (P02751 1266-1356 limits assumed): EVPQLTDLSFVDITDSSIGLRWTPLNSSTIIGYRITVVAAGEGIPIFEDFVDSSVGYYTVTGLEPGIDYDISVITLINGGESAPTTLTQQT
substance,measurement,setting,value
131I L19-SIP (radioiodinated L19 SIP homodimer),Immunoreactivity (%),[1],94.6%
same,Immunoreactivity (%),[2],65.8%
same,Immunoreactivity (%),[3],57.7%
same,Immunoreactivity (%),[4],85.9%
same,Immunoreactivity (%),[5],66.2%
same,Immunoreactivity (%),[6],62.8%
same,Immunoreactivity (%),[7],63.7%
same,Immunoreactivity (%),[8],61.9%
same,Immunoreactivity (IR) (%),[9],77.1%
same,Immunoreactivity (%),[10],88.1%
same,Immunoreactivity (%),[11],97.2%
same,Immunoreactivity (%),[12],79.6%
same,Immunoreactivity (IR) (%),[13],59.5%
same,Immunoreactivity (IR) (%),[14],47.1%
same,Immunoreactivity (IR) (%),[15],74.1%
same,Immunoreactivity (IR) (%),[16],55.3%
same,Immunoreactivity (%),[17],97.3%
same,Immunoreactivity (%),[18],94.4%
same,Immunoreactivity (%),[19],79.4%
same,Immunoreactivity (%),[20],94.7%
same,Immunoreactivity (%),[21],88.5%
same,Immunoreactivity (%),[22],87.9%
same,Immunoreactivity (IR) (%),[23],56.4%
same,Immunoreactivity (%),[24],94.3%
same,Immunoreactivity (%),[25],81.6%
same,Immunoreactivity (%),[26],47.6%
same,Immunoreactivity (IR) (%),[27],76.3%
same,Immunoreactivity (IR) (%),[28],53%
